# Source: IntAct's records for PubMed 16648257
# B1: Type IV secretion system protein virB8 (Brucella suis biovar 1 (strain 1330)), Q7CEG3 (parent)
# chain: MFGRKQSPQKSVKNGQGNAPSVYDEALNWEAAHVRLVEKSERRAWKIAGAFGTITVLLGIGIAGMLPLKQHVPYLVRVNAQTGAPDILTSLDEKSVSYDTVMDKYWLSQYVIARETYDWYTLQKDYETVGMLSSPSEGQSYASQFQGDKALDKQYGSNVRTSVTIVSIVPNGKGIGTVRFAKTTKRTNETGDGETTHWIATIGYQYVNPSLMSESARLTNPLGFNVTSYRVDPEMGVVQ
# partner: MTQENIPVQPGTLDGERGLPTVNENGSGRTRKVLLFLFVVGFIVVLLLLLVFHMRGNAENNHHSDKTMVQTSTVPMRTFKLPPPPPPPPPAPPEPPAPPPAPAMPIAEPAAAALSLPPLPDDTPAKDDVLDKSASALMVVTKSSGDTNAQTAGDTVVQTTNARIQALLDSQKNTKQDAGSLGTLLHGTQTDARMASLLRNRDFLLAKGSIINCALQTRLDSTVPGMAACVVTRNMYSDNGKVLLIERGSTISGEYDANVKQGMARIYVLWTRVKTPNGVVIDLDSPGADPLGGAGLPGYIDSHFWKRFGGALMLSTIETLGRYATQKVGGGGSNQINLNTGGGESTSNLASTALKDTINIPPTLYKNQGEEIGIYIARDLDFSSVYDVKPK
# Variants of: B1
# Settings: with virba_brusu virB10, Q9RPX5
row,Variant,effect of a mutation on the interaction
1,T201A,decreasing interaction strength
2,T201Y,decreasing interaction strength
